Numbering of substitutions follows the chain as printed. Read-outs that look alike come from different tables or passages of the source.
Columns and labels:
Claudin 18.2 (mouse) [1] = biological target: T1, Claudin 18.2 (mouse) (mouse, UniProt P56857 10-264); test: flow cytometry, antibody titration on HEK-293T cells transfected with mouse CLDN18.2
T1 construct: Expressed on transfected HEK-293T cells; also called mouse CLDN18.2
T1 chain: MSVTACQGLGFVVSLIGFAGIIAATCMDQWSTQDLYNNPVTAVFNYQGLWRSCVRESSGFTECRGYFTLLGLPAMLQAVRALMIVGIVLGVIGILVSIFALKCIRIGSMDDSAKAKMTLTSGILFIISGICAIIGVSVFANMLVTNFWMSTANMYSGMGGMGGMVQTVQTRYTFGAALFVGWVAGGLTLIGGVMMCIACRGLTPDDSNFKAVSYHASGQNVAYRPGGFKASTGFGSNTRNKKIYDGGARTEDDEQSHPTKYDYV
Source text: (§1) Fluorescence was detected using an Intellicyt high-throughput flow cytometer (HTFC; Intellicyt, Albuquerque, NM).”).

Claudin 18.2 (human) [2] = biological target: T2, Claudin 18.2 (human) (human); test: flow cytometry, antibody titration on HEK-293T cells transfected with hsCLDN18.2, APC-labelled anti-human secondary
T2 construct: Multispanning membrane protein; also called hsCLDN18.2
Source text: Fluorescence was detected using an Intellicyt high-throughput flow cytometer (HTFC; Intellicyt, Albuquerque, NM).

Claudin 18.2 (human) [3] = biological target: T2, Claudin 18.2 (human); test: cell binding (MFI), titration on cells with native Claudin 18.2; cell type and species not stated for this figure
[4] = biological target: T3, Claudin 18.2 (cynomolgus) (cynomolgus); test: flow cytometry, antibody titration on HEK-293T cells transfected with cynomolgus CLDN18.2
T3 construct: Expressed on transfected HEK-293T cells; also called cynomolgus CLDN18.2
T3 chain: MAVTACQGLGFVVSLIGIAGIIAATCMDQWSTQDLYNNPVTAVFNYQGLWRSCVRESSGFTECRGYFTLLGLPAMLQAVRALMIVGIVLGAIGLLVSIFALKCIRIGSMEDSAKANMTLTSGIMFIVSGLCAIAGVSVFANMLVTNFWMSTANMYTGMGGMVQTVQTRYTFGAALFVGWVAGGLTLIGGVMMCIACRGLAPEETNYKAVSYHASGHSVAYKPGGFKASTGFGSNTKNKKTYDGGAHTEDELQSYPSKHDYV
Source text: as §1

Claudin 18.2 (human) [5] = biological target: T2, Claudin 18.2 (human); test: biolayer interferometry (Octet Red), biotinylated hsCLDN18.2-VLPs on streptavidin tips, antibody in solution, 1:1 model; hsCLDN18.2 on biotinylated VLPs on the biosensor tip
Procedure: All biosensor studies were performed in PBS buffer supplemented with 1 mg/mL bovine serum albumin (BSA; PBS-B) at 25° C. using a ForteBio Octet Red biosensor system (Pall-ForteBio, Inc., Menlo Park, CA). […] Antibody binding and dissociation kinetics were determined for serial dilutions of antibody in PBS-B starting at 20 μg/mL. Antibody association was measured for 5 minutes followed by dissociation for up to 45 minutes in buffer. Non-specific binding was assessed using sensor tips with VLPs containing only endogenous proteins (Null VLPs). Data analysis was performed using the Octet data analysis program (v8.1; ForteBio) using a standard 1:1 binding model.

Claudin 18.2 (human) [6] = biological target: T2, Claudin 18.2 (human); test: flow cytometry, antibody titration on HEK-293T cells transfected with human CLDN18.2
Source text: as §1

Claudin 18.2 (human) [7] = biological target: T2, Claudin 18.2 (human); test: as above; remark: listed apart in the source
Source text: as §1

Claudin 18.2 (mouse) [8] = biological target: T1, Claudin 18.2 (mouse); test: flow cytometry, antibody titration on HEK-293T cells transfected with mouse CLDN18.2
Source text: as §1

Claudin 18.2 (human) [9] = biological target: T2, Claudin 18.2 (human); test: cell binding (MFI), titration on cells with native Claudin 18.2; cell type and species not stated for this figure; remark: listed apart in the source
[10] = biological target: T3, Claudin 18.2 (cynomolgus); test: flow cytometry, antibody titration on HEK-293T cells transfected with cynomolgus CLDN18.2
Source text: as §1

Claudin 18.2 (human) [11] = biological target: T2, Claudin 18.2 (human); test: cell binding (MFI), titration on cells with native Claudin 18.2; cell type and species not stated for this figure; remark: listed apart in the source
Claudin 18.2 (mouse) [12] = biological target: T1, Claudin 18.2 (mouse); test: flow cytometry, antibody titration on HEK-293T cells transfected with mouse CLDN18.2
Source text: as §1

[13] = biological target: T3, Claudin 18.2 (cynomolgus); test: flow cytometry, antibody titration on HEK-293T cells transfected with cynomolgus CLDN18.2
Source text: as §1

Claudin 18.2 (human) [14] = biological target: T2, Claudin 18.2 (human); test: biolayer interferometry (Octet Red), biotinylated hsCLDN18.2-VLPs on streptavidin tips, antibody in solution, 1:1 model

B1: MAb2 (IM-44-01E10-1HA) (antibody, V domains shown)
VH: EVQLLESGGGLVQPGGSLRLSCAASGFTFSSYGMSWVRQAPGKGLEWVAGIGSSGSDTWYADSVKGRFTISRDNSKNTLYLQMNSLRAEDTAVYYCAKDATNGYCWYTGRGSYSCGAHHIDAWGQGTLVTVSS
VL: SYELTQPPSVSVSPGQTARITCSGGSGSYGYYGWYQQKPGQAPVTVIYGTNKRPSGIPERFSGSSSGTTVTLTISGVQAEDEADYYCGGYDSSAGIFGGGTKLTVL
notes: Humanized antibody derived from a chicken scFv; tested as 'purified IgG' (bivalent); The general methods say candidate scFv were converted to human IgG1-Fc (scFv-Fc) format
Claudin 18.2 (mouse) [1]
  EC50 (read off the curve): ~6 nM
Claudin 18.2 (human) [2]
  EC50 (read off the curve): ~4 nM
Claudin 18.2 (human) [3]
  EC50 (read off the curve): ~4 nM
[4]
  EC50 (read off the curve): ~4 nM
Claudin 18.2 (human) [5]
  Kd: 0.3 nM
Claudin 18.2 (human) [6]
  EC50 (read off the curve): ~6 nM

B2: monovalent form of MAb2 (other)
VH: B1 VH
VL: B1 VL
notes: also called MAb2 monovalent; monomeric MAb2
Claudin 18.2 (human) [3]
  EC50 (read off the curve): ~10 nM

B3: MAb1 (IM-44-09B03-1H1B) (antibody, V domains shown)
VH: EVQLLESGGGLVQPGGSLRLSCAASGFTFSSYGMGWVRQAPGKGLEWVAAITRDSSTNYGAAVKGRATISRDNSKNTLYLQMNSLRAEDTAVYYCAKDASNGYCWYTGRGSYSCGAHHIDAWGQGTLVTVSS
VL: SYELTQPPSVSVSPGQTARITCSGGYNGHYGWYQQKPGQAPVTVIYSNNQRPSGIPERFSGSSSGTTVTLTISGVQAEDEADYYCGGYDSSAGIFGGGTKLTVL
notes: Humanized antibody derived from a chicken scFv; tested as 'purified IgG' (bivalent); The general methods say candidate scFv were converted to human IgG1-Fc (scFv-Fc) format; also called IM-44-09B03-1HB; IM-44-09B03-1HIB
Claudin 18.2 (human) [2]
  EC50 (read off the curve): ~5 nM
Claudin 18.2 (human) [7]
  EC50 (read off the curve): ~4 nM
Claudin 18.2 (mouse) [8]
  EC50 (read off the curve): ~4 nM
Claudin 18.2 (human) [9]
  EC50 (read off the curve): ~0.8 nM
[10]
  EC50 (read off the curve): ~5 nM
Claudin 18.2 (human) [5]
  Kd: 0.1 nM

B4: MAb3 (IM-44-05H06-1HD) (antibody, V domains shown)
VH: EVQLLESGGGLVQPGGSLRLSCAASGFTFRSYAMMWVRQAPGKGLEWVGEISSTGGSTYYGSAVKGRATISRDNSKNTLYLQMNSLRAEDTAVYYCAKSTYGATWKSADSIDAWGQGTLVTVSS
VL: B3 VL with T43L
notes: as for B1
Claudin 18.2 (human) [11]
  EC50 (read off the curve): ~3 nM
Claudin 18.2 (mouse) [12]
  EC50 (read off the curve): ~9 nM
Claudin 18.2 (human) [5]
  Kd: 1.2 nM
[13]
  EC50 (read off the curve): ~9 nM

B5: monovalent form of MAb1 (other)
VH: B3 VH
VL: B3 VL
notes: also called MAb1 monovalent; monomeric MAb1
Claudin 18.2 (human) [9]
  EC50 (read off the curve): ~3 nM

B6: zolbetuximab (antibody, V domains shown)
VH: QVQLQQPGAELVRPGASVKLSCKASGYTFTSYWINWVKQRPGQGLEWIGNIYPSDSYTNYNQKFKDKATLTVDKSSSTAYMQLSSPTSEDSAVYYCTRSWRGNSFDYWGQGTTLTVSS
VL: DIVMTQSPSSLTVTAGEKVTMSCKSSQSLLNSGNQKNYLTWYQQKPGQPPKLLIYWASTRESGVPDRFTGSGSGTDFTLTISSVQAEDLAVYYCQNDYSYPFTFGSGTKLEIK
Claudin 18.2 (human) [14]
  Kd: 0.3 nM

— patent publication US20230391885A1 (INTEGRAL MOLECULAR, published 2023)
